We go through two substances from patent US20160340421A1.

For experiment [1], the target named is GDF8/TGFβ[48-72] chimera (T48): GDF8.1-47.TGFβ1.49-76.GDF8.73-109 (human GDF8 with human TGFβ-1 sequence). Put plainly: cell-based or functional assay.
Target sequence (chain, as listed by the source mutant limits assumed): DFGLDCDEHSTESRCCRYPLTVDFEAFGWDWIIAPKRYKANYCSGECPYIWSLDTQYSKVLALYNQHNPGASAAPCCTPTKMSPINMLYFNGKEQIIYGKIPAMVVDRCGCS
Experiment [2] addresses Human GDF8 homodimer (mature human Growth and Differentiation Factor-8) (human) (UniProt O14793). Nature of the experiment: cell-based or functional assay.
The target of experiment [3] is hGDF11 homodimer (human) (UniProt O95390). Nature of the experiment: cell-based or functional assay.
Chain of hGDF11 homodimer (human) (O95390 299-407 limits assumed): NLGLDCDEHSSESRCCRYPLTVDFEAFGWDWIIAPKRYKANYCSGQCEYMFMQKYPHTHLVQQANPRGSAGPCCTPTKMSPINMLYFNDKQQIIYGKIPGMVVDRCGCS
For experiment [4], the target named is Human GDF8 homodimer (mature human Growth and Differentiation Factor-8) (human) (UniProt O14793). Put plainly: SPR, antibody captured, 25 nM antigen. On the technique in general: Surface plasmon resonance follows binding to a sensor surface in real time, without labels.
Chain of Human GDF8 homodimer (mature human Growth and Differentiation Factor-8) (human) (O14793 267-375): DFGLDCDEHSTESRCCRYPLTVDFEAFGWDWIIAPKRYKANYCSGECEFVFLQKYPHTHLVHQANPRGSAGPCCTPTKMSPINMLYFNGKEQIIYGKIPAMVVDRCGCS
In experiment [5] the target is hGDF11 homodimer (human) (UniProt O95390). Put plainly: SPR, antibody captured, 25 nM antigen.
Experiment [6] addresses Human GDF8 homodimer (mature human Growth and Differentiation Factor-8) (human) (UniProt O14793). Nature of the experiment: SPR, antibody captured, buffer without BSA.
In experiment [7] the target is hGDF11 homodimer (human) (UniProt O95390). Nature of the experiment: SPR, antibody captured, buffer without BSA.
Experiment [8] has as its target Human GDF8 homodimer (mature human Growth and Differentiation Factor-8) (human) (UniProt O14793). Nature of the experiment: SPR Biacore T100, captured on anti-hFc, 25°C.
For experiment [9], the target named is hGDF11 homodimer (human) (UniProt O95390). Put plainly: SPR Biacore T100, captured on anti-hFc, 25°C.
Experiment [10] deals with Human GDF8 homodimer (mature human Growth and Differentiation Factor-8) (human) (UniProt O14793). Nature of the experiment: SPR Biacore T100, captured on anti-hFc, 37°C.
Experiment [11] has as its target hGDF11 homodimer (human) (UniProt O95390). Put plainly: SPR Biacore T100, captured on anti-hFc, 37°C.
For experiment [12], the target named is Human GDF8 homodimer (mature human Growth and Differentiation Factor-8) (human) (UniProt O14793). Nature of the experiment: Luminex: hGDF8 beads with 1.25 µg/ml antibody, then Activin RIIB-mFc; MFI of bound Activin RIIB-mFc (n=3).

For the substance “Control I: human anti-GDF8 antibody with the heavy and light chain variable regions of Myo29”, in experiment [1], the approximate IC50, luciferase bioassay with GDF8/TGFβ[48-72] conditioned medium turned out to be 402 pM. In [2], this substance showed an IC50, GDF8-inducible luciferase, A204/Smad2 cells, 0.8 nM GDF8 of 620 pM. The substance also showed an IC50, luciferase bioassay, 0.5 nM GDF8 in experiment [2] of 172 pM. Besides, in experiment [2], the IC50, luciferase bioassay, 1 nM GDF8 stood at 398 pM. Besides, in the experiment with hGDF11 homodimer (human) [3], the IC50, GDF11-inducible luciferase, A204/Smad2 cells, 0.8 nM GDF11 came to 940 pM. This substance also yielded an IC50, luciferase bioassay, 0.4 nM GDF11 with hGDF11 homodimer (human) [3] of 255 pM. Also, the IC50, luciferase bioassay, 0.8 nM GDF11 with hGDF11 homodimer (human) [3] amounted to 459 pM. Also, the Kd in experiment [4] stood at 50 pM; in the experiment with hGDF11 homodimer (human) [5], 80 pM; in experiment [6], 2 pM; in the experiment with hGDF11 homodimer (human) [7], 1 pM; in experiment [8] it was 10.3 pM; with hGDF11 homodimer (human) [9], 14.6 pM. Further, the Kd in [10] came out at 24.4 pM; with hGDF11 homodimer (human) [11], 27.4 pM. Moreover, the T1/2 was found to be 3.18 h in experiment [4]; 2.27 h in the experiment with hGDF11 homodimer (human) [5]; 21.7 h in experiment [6]; 1.75 h with hGDF11 homodimer (human) [7]; 4.55 h in experiment [8]; 3.68 h with hGDF11 homodimer (human) [9]. The values for the T1/2 (in experiment [10]; with hGDF11 homodimer (human) [11]) were 1.17 h and 0.933 h, respectively. The substance also had an MFI in [12] of 58.
As for Negative Control (Table 11), in experiment [12], the MFI was 4560.

Broadly, the Kd is the free concentration of one partner at which half of the binding sites on the other are occupied at equilibrium, for simple one-to-one binding. A higher Kd goes with weaker binding.
